Test results reported in the nanobody polyreactivity screen of Harvey et al. (2022).

assay: yeast display, Sf9 membrane polyspecificity reagent, FACS + sequencing; frameworks hold sequencing errors
In short: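 Nanobodies from a synthetic yeast display library (Saccharomyces cerevisiae BJ5465), induced 36–48 hours with galactose, were stained 1 hour at 4 °C with 10% biotinylated, detergent-solubilized Sf9 membrane reagent, enriched on streptavidin microbeads, then FACS-sorted. Anti-HA (expression) and streptavidin (reagent binding) fluorescence set low and high (top ~1%) gates. Polyreactivity labels come from the gate of origin. Genes were colony-PCR amplified, MiSeq 2 × 250 sequenced and filtered by CDR length.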

Row | Sequence | polyreactivity (PSR sort gate)
1 | QVQLVESGGGLVQAGGSLRLSCAASGSTLSLYAMGWSRQAPGKERELVAAITSSGGTYYADSVKGRFTISRDNAKNTVYLQMNSLKPEDTADYYCARSRYRAQGKFDYWGQGTQVTVSS | high polyreactivity
2 | QVQLVESGGGLVQAGGSLRLSCAASGSTLSQNAMGWYRQAPGKEREFVADISGAGDSTYYADSVKGRFTISRDNAKNTVYLQMISLKPDDTAVYYCATPSPHVGLKWEYDYWGQGTQVTVSS | low polyreactivity
3 | QVQLVESGGGLVQAGGSLRLSCAASGSTLSVNAMGWYRPAPGKERELVAAIDFDGGDTYYADSVKGRFTISRDNAKNNVYLQMNSLKPEDTAVYYCAADIGGQYDYLADDYWGQGTQVTVSS | low polyreactivity
4 | QVQLVESGGGLVQAGGSLRLSCAASGSTLSYNAMGWYRQAPGKERELVAAISGRGGSTSYADSVKGRFTISRDNAKNTVYLQMNSLKPEDTAVYYCNRYSRSAYEWEYYSWGQGTQVTVSS | high polyreactivity
5 | QVQLVESGGGLVQAGGSLRLSCAASGSTLSYYAMGWYRQAPGKERELVAAISFSGGITYYADSVKGRFTISRDNAKNTVYLQMNSLKPEDTAVYYCNAEYQVYRAYVIWYDYWGQGTQVTVSS | high polyreactivity
6 | QVQLVESGGGLVQAGGSLRLSCAASGSTLTRNTMGCYRQAPAKERELVATNTRSGGSTYYADSVKGRFTISRDNAKNTVYLQMNSLKPEDTAVYYCAVRRQTFRYVYPGMDYWGQGTQVTVSS | high polyreactivity
7 | QVQLVESGGGLVQAGGSLRLSCAASGSTLTSNAMGWYRQAPGKERELVAAIRSGGSTNYADSVKGRFTISRDNAKNTVYLQMNSLKPEDTAVYYCNKDFLWQGYGYSRVSYDYWGQGTQVTVSS | low polyreactivity
8 | QVQLVESGGGLVQAGGSLRLSCAASGSTLTYNAMGWYRQAPGKERELVAAIDWDGDTTYYADSVKGRFTISRDNAKNTVYLQMNSLKPEDTAVYYCAAEFYSLGKAIYEYWGQGTQVTVSS | high polyreactivity
9 | QVQLVESGGGLVQAGGSLRLSCAASGSTLTYYTMGWYRQAPGKERELVARISWSSGRTYYADSVKGRFTISRDNAKNTVYLQMNSLKPEDTAVYYCNADRTYYRGLDYWGQGTQVTVSS | high polyreactivity
10 | QVQLVESGGGLVQAGGSLRLSCAASGSTLVGNTMGWYRQAPGKERELVAAITGVGSRNYADSVKGRFTISRDNAKNTVYLQMNSLKPEDTALYYCAAETWYSVLWEEGYDYWGHGTQVTVSS | low polyreactivity
11 | QVQLVESGGGLVQAGGSLRLSCAASGSTLVIYAMGWYRQAPGKERELVAAINFSDGSTSYADSVKGRFTISRDNAKNTVYLQMNSLKPEDTAVYYWGQGTQVTVSS | low polyreactivity
12 | QVQLVESGGGLVQAGGSLRLSCAASGSTLVIYAMGWYRQAPVKEREFVAAIRCSPGRTYYADSVKGRFTISRDNAKNSVYLQMNSLKPEDTAVYYCAVEYQSWKGWWFDYWGQGTQLTVSS | high polyreactivity
13 | QVQLVESGGGLVQAGGSLRLSCAASGSTLVKYAMGWYRQAPGKERELVAAISWSGGRTYYADSVKGRFTISRDNAKNTVYLQMNSLKPEDTAVYYCAARSTRFYTPGYYYWGQGTQVTVSS | high polyreactivity
14 | QVQLVESGGGLVQAGGSLRLSCAASGSTLVSNAMGWYRQAPGKERELVASISYSATSTYYADSVKGRFTISRDNAKNTVYLQMNSLKPEDTAVYYCAAKTFRSRYYYWGQGTQVTVSS | high polyreactivity
15 | QVQLVESGGGLVQAGGSLRLSCAASGSTLVTYAMGWYRQAPGKERELVAGISSGGSTNYADSVKGRFTISRDNAKNTVYLQMNSLKPEDTAVYYCAAQGSLTWWAATFIYDYWGQGTQVTVSS | low polyreactivity
16 | QVQLVESGGGLVQAGGSLRLSCAASGSTLVYNAMGWYRQAPGKERELVAAISRSGGITYYADSVKGRFTISRDNAKNTVYLQMNSLKPEDTAVYYCNAVVRTRYRPGYDYDYWGQGTQVTVSS | high polyreactivity
17 | QVQLVESGGGLVQAGGSLRLSCAASGSTLVYNDMGWYRQAPGKEREFVAAIRSNDGSTYYADSVKGRFTISRDNAKNTVYLQMNSLKPEDTAVYYCNKDVWDGYDWPEFDYWGQGTQVTVSS | low polyreactivity
18 | QVQLVESGGGLVQAGGSLRLSCAASGSTLWAYAMGWYRQAPGKERELVASISSGGNTNYADSVKGRFTISRDNAKNTVYLQMNSLKPEDTAVYYCAAVGYLYFWYPYDYWGQGTQLTVSS | low polyreactivity
19 | QVQLVESGGGLVQAGGSLRLSCAASGSTLWYNARGWYRDAPGKERELVAAITTSTDSTYYADSVKGRFTISRYNAKNTVYLQMNSLKPEDTAVYYCAAVLHLNGGGKAYDYWGLGTQVTVSS | low polyreactivity
20 | QVQLVESGGGLVQAGGSLRLSCAASGSTLYGYVMGWYRQAPGKERELVADITWSGGSTYYADSVKGRFIISRDNAKNTVYLQMNSLKPEDTAVYYCNADRYGIYYYSRLPFDYWGQGTQVTVSS | low polyreactivity
21 | QVQLVESGGGLVQAGGSLRLSCAASGSTLYHNAMGWYRQAPGKERELVAAITRGGSTYYADSVKGRFTISRDNAKNTVYLQMNILKPEDTAVYYCAVAVLVYYGKYYPYKMYYWGQGTQVTVSS | high polyreactivity
22 | QVQLVESGGGLVQAGGSLRLSCAASGSTLYLNAMGWYRQAPGKERELDASISNGVNTNYADSVKGRFTISRDNAKNTVYLLMNSLKPEDTAVYYCAKEKRFQKTVHRKPAYDYWGQGTQVTVSS | low polyreactivity
23 | QVQLVESGGGLVQAGGSLRLSCAASGSTLYPYAMGWYRQAPGKEWELVAVITLRGGSTYYADSVKGRFTISRDNAKNSVSVQMKSLKPEDTAVYYCAADPRKVHSDDYDYWGQGTQVNVSS | high polyreactivity
24 | QVQLVESGGGLVQAGGSLRLSCAASGSTLYPYDMGWYRPAPGKERELVAAIDSGGSTNYADSVKGRFTISRDNAKNTVYLQMNSLKPEDTAVYYCATEILTSARDTVVYQFYLGYYYWGQGTQVTVSS | low polyreactivity
25 | QVQLVESGGGLVQAGGSLRLSCAASGSTLYRYAMGWYRQAPGKERELVAAITRGSGSTYYADSVKGRFTISRDNAKNTVYLQMNSLKPEDTAVYYCATVKRNHLDGFEYWGQGTQVTVSS | high polyreactivity
26 | QVQLVESGGGLVQAGGSLRLSCAASGSTLYSYAMGWSRQAPGKEREFVAAITSDDGSTYYADSVKGRFTISRDNAKNTVYLQMNSLKPEDTAVYYCATAGSVEYNYWGQGTQVTVSS | low polyreactivity
27 | QVQLVESGGGLVQAGGSLRLSCAASGSTLYVNAMGCYIQAPGKERELVAAISSGGGRTYYADSVKGRFTISRDNAKNTVYLQMNSLKPEETAVYYCARKPYYPYDYWGQGTLVTVSS | low polyreactivity
28 | QVQLVESGGGLVQAGGSLRLSCAASGSTLYWNAMGWYRQAPGKDRELVATINTNGGSTYYADSVKGRFTISRDNAKNTVYLQMNSLKPEDTAVYYCAAQVRQWGYFRYYYWGQGTQVTVSS | high polyreactivity
29 | QVQLVESGGGLVQAGGSLRLSCAASGSTQNVYAMGWYRQATGKERELVAAIRWSGDTYYADSVKGRFTISRDNAKNTVYLQMNSLKPEDTAVYYCAAVPGTTYWQRFDYWGQGTQVTVSS | low polyreactivity
30 | QVQLVESGGGLVQAGGSLRLSCAASGSTQYWNAMGWYRQAPGKERELVAAISRSGGSTYYADSVKGRFTISRDNAKNTVYLQINSLKPEDTAVYYCAARRYVPHTEYYYWGQGTQVTVSS | low polyreactivity
